The target of assay [1] is PD-1 on PD-1 reporter Jurkat cells (UniProt Q15116 25-288, limits assumed). The assay is described as follows: cell-based or functional assay.
Another assay has as its target T1, mouse PD-1 (mouse, UniProt Q02242 25-167, limits assumed).
T1 sequence (looked up): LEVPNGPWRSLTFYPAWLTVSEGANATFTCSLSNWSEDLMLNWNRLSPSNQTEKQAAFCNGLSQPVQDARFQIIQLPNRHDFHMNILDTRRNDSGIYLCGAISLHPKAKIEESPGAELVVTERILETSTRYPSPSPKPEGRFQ
As to the kind of experiment: BLI (biosensor): test article on anti-human IgG Fc tips, PD-1 in solution. How it is done: (§1) Anti-human IgG Fc (AHC) biosensors were equilibrated in assay buffer for 20 minutes. Test articles were diluted to 10 μg/mL in assay buffer (lx PBS, 1% BSA, 0.05% Tween20). A seven-point serial dilution of human PD-1 was prepared in assay buffer, starting at 1000 nM down to 15.625 nM (human PD-1) or 2000 nM down to 31.25 nM (mouse PD-1). Test articles were loaded on tips for 180 s followed by a 180 s association phase with PD-1 and 180 s dissociation phase in assay buffer.
(§2) Anti-human IgG Fc (AHC) biosensors were equilibrated in assay buffer for 20 minutes. Test article was diluted to 10 μg/mL in assay buffer (lx PBS, 1% BSA, 0.05% Tween20). A seven-point serial dilution of human PD-1 was prepared in assay buffer, starting at 1000 nM down to 15.625 nM (human and cyno PD-1) or 2000 nM down to 31.25 nM (mouse PD-1). Test article was loaded on tips for 180 s followed by a 180 s association phase with PD-1 and 180 s dissociation phase in assay buffer.

In another assay the target is T2, human PD-1 (human, UniProt Q15116 25-167, limits assumed).
T2 construct: also called huPD-1
The description is as above. The procedure:
as §1, §2

A further assay concerns the target T3, cynomolgus PD-1 (cynomolgus, UniProt B0LAJ3 25-170).
T3 construct: also called cyno PD-1
The description is as above. The procedure:
as §1, §2

In assay [2] the target is T4, Fc-tagged cynomolgus PD-1 (cynomolgus, UniProt B0LAJ3 25-170).
T4 construct: Printed 'Fe-tagged', read as Fc-tagged; also called cyno PD-1; Fe-tagged cynomolgus PD-1 (so in the source)
The assay is described as follows: BLI (biosensor): Fc-tagged PD-1 on anti-human IgG Fc tips, fragment in solution. How it is done:
(§3) Anti-human IgG Fc (AHC) or Streptavidin (SA) biosensor were equilibrated in assay buffer for 20 minutes. Fe-tagged mouse and cynomolgus PD-1 was diluted to 5 μg/mL and biotinylated huPD-1 article was diluted to 0.5 μg/mL in assay buffer (1×PBS, 1% BSA, 0.05% Tween20). […] PD-1 was loaded on tips for 180 s followed by a 180 s association phase with PD-1 and 180 s dissociation phase in assay buffer.

The next assay deals with T5, Fc-tagged mouse PD-1 (mouse, UniProt Q02242 25-167, limits assumed).
T5 construct: Printed 'Fe-tagged', read as Fc-tagged; also called Fe-tagged mouse PD-1 (so in the source); not shown: Fc tag
T5 sequence (looked up): T1 sequence (looked up)
Described as above. How it is done:
as §3

For a further assay, the target named is T6, biotinylated huPD-1 (human, UniProt Q15116 25-167, limits assumed, biotinylated (site not stated)).
T6 construct: also called human PD-1
The assay is described as follows: BLI (biosensor): biotinylated huPD-1 on streptavidin tips, fragment in solution. The procedure:
as §3

Substitutions are numbered along the chain they refer to. Several values for one entry are separate records, joined by “and”; a condition that tells them apart may be missing. Identical values can stand only once.

Experimental findings from US20240052034A1 (PANDION OPERATIONS, published 2024) are described below.

T3 sequence (B0LAJ3 entry or part of it limits assumed): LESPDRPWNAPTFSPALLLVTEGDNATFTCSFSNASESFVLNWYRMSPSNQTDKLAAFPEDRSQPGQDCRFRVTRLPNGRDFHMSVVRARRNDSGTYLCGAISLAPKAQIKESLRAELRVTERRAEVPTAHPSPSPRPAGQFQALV
T4 sequence (B0LAJ3 entry or part of it limits assumed): as above
Chain of PD-1 on PD-1 reporter Jurkat cells (Q15116 25-288 limits assumed): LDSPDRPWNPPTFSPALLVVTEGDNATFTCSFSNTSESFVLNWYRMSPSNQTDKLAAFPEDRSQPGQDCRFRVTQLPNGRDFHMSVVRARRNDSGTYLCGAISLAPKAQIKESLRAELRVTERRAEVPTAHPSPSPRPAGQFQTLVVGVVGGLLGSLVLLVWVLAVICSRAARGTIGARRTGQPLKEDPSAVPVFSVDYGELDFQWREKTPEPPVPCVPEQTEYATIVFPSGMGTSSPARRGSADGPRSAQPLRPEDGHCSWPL
T2 sequence (Q15116 25-167 limits assumed): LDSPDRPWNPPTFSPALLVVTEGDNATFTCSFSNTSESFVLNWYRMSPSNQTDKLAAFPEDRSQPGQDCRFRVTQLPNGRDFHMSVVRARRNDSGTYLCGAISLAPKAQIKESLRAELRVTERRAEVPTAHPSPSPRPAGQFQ
T6 sequence (Q15116 25-167 limits assumed): as above

B1: PD1AB38 (bispecific antibody, human IgG1, kappa)
heavy: EVQLVQSGAEVKKPGASVKVSCKASGYSFTTYYMHWVRQAPGQGLEWMGIINPSGGSTSYAQKFQGRVTMTRDTSTSTVYMELSSLRSEDTAVYYCASGWVYWGQGTLVTVSSASTKGPSVFPLAPSSKSTSGGTAALGCLVKDYFPEPVTVSWNSGALTSGVHTFPAVLQSSGLYSLSSVVTVPSSSLGTQTYICNVNHKPSNTKVDKKVEPKSCDKTHTCPPCPAPEAAGAPSVFLFPPKPKDTLMISRTPEVTCVVVDVSHEDPEVKFNWYVDGVEVHNAKTKPREEQYNSTYRVVSVLTVLHQDWLNGKEYKCKVSNKALPAPIEKTISKAKGQPREPQVYTLPPSREEMTKNQVSLTCLVKGFYPSDIAVEWESNGQPENNYKTTPPVLDSDGSFFLYSKLTVDKSRWQQGNVFSCSVMHEALHNHYTQKSLSLSPGGGGGSGGGGSGGGGSEVQLLESGGGLVQPGGSLRLSCAASGFTFSSYDMSWVRQAPGKGLEWVSGITISGGSTYYADSVKGRFTISRDNSKNTLYLQMNSLRAEDTAVYYCARGRGGSGWLDYWGQGTTVTVSSGGGGSGGGGSGGGGSGGGGSDIVMTQSPDSLAVSLGERATINCKSSQSVLYSPNNKNYLAWYQQKPGQPPKLLIYWASTRESGVPDRFSGSGSGTDFTLTISSLQAEDVAVYYCQQYYTTPPTFGQGTRLEIK
light: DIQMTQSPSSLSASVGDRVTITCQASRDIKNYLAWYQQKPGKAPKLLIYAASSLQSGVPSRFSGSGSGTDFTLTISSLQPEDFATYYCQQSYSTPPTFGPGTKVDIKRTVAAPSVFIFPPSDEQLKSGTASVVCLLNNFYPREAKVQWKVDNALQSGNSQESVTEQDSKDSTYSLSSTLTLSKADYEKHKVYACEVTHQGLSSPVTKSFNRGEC
As for B1, in assay [1], the “EC50 of SHP-2 recruitment, PD-1 reporter Jurkat cells, Ig-tethered test article on anti-human IgG coated plates” value (from here on “EC50 … on anti-human IgG coated plates”) was 20.9 nM and the “EC50 of SHP-2 recruitment, PD-1 reporter Jurkat cells, soluble test article” value (shortened to “EC50 of SHP-2 recruitment … soluble test article”) turned out to be 0.302 nM. Further, in the assay with mouse PD-1, the affinity, expressed as Kd, was 979 nM; the koff (commonly a measure of how fast the partners let go of each other) turned out to be 0.0229 s⁻¹; the on-rate constant (kon) (commonly the rate constant with which the complex forms) was 23400 M⁻¹ s⁻¹.

B2: PD1AB43 (bispecific antibody, human IgG1, kappa)
heavy: B1 heavy with E1Q, N52A
light: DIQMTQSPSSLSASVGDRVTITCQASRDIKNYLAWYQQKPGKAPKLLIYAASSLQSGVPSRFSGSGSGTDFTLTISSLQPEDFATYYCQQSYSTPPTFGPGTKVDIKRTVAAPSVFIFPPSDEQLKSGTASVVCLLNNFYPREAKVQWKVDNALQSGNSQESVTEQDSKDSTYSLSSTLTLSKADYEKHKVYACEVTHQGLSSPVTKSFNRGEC
Turning to B2, in assay [1], the “EC50 … on anti-human IgG coated plates” value came out at 8.51 nM and the “EC50 of SHP-2 recruitment … soluble test article” value was 0.574 nM. Besides, in the assay with mouse PD-1, the Kd (commonly a measure of binding affinity in units of concentration) was 1430 nM, the koff amounted to 0.0404 s⁻¹, the kon stood at 28200 M⁻¹ s⁻¹ and the response was 0.0546.

B3: PD1AB37 (bispecific antibody, human IgG1, kappa)
heavy: B1 heavy with T31S
light: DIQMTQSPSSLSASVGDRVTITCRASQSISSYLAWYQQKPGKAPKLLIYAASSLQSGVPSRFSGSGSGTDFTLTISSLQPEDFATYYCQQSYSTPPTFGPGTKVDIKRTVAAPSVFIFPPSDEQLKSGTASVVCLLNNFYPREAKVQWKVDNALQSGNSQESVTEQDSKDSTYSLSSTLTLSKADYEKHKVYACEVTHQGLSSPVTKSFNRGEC
Turning to B3, in assay [1], the “EC50 … on anti-human IgG coated plates” value was 24.5 nM and the “EC50 of SHP-2 recruitment … soluble test article” value was 0.37 nM. In the assay with human PD-1, the Kd stood at 18.3 nM, the koff was 0.000824 s⁻¹ and the kon was determined as 45000 M⁻¹ s⁻¹. Moreover, in the assay with cynomolgus PD-1, the Kd turned out to be 15.4 nM, the koff was determined as 0.000566 s⁻¹ and the kon was 36800 M⁻¹ s⁻¹. In the assay with mouse PD-1, this molecule displayed a Kd of 4860 nM, a koff of 0.0245 s⁻¹ and a kon of 5050 M⁻¹ s⁻¹.

B4: scFv moiety of the PD1AB53 (scFv)
scFv: DIQMTQSPSSLSASVGDRVTITCQASRDIKNYLAWYQQKPGKAPKLLIYAASSLQSGVPSRFSGSGSGTDFTLTISSLQPEDFATYYCQQSYSTPPTFGCGTKVDIKGGGGSGGGGSGGGGSGGGGSEVQLVQSGAEVKKPGASVKVSCKASGYSFTTYYMHWVRQAPGQCLEWMGIINPSGGSTSYAQKFQGRVTMTRDTSTSTVYMELSSLRSEDTAVYYCASGWVYWGQGTLVTVSS
notes: also called PD1AB53 scFv
As to B4, the Kd in assay [2] worked out at 1170 nM; with Fc-tagged mouse PD-1, 1060 nM; in the assay with biotinylated huPD-1, 1350 nM.

B5: scFv moiety of the PD1AB37 (scFv)
scFv: EVQLLESGGGLVQPGGSLRLSCAASGFTFSSYDMSWVRQAPGKGLEWVSGITISGGSTYYADSVKGRFTISRDNSKNTLYLQMNSLRAEDTAVYYCARGRGGSGWLDYWGQGTTVTVSSGGGGSGGGGSGGGGSGGGGSDIVMTQSPDSLAVSLGERATINCKSSQSVLYSPNNKNYLAWYQQKPGQPPKLLIYWASTRESGVPDRFSGSGSGTDFTLTISSLQAEDVAVYYCQQYYTTPPTFGQGTRLEIK
notes: also called PD1AB37 scFv
With B5, the Kd came to 58.6 nM in assay [2] and 89.9 nM in the assay with biotinylated huPD-1. In addition, the binding result with Fc-tagged mouse PD-1 is reported as “no binding”.

B6: scFv moiety of the PD1AB38 (scFv)
scFv: B5 scFv
notes: also called PD1AB38 scFv
B6: binding in assay [2] was characterised by a dissociation constant (Kd) of 58.6 nM. In addition, in the assay with Fc-tagged mouse PD-1, the binding result is on record as “no binding”.

B7: PD1AB53 (bispecific antibody, human IgG1, kappa)
heavy: EVQLLESGGGLVQPGGSLRLSCAASGFTFSSYDMSWVRQAPGKGLEWVSGITISGGSTYYADSVKGRFTISRDNSKNTLYLQMNSLRAEDTAVYYCARGRGGSGWLDYWGQGTTVTVSSASTKGPSVFPLAPSSKSTSGGTAALGCLVKDYFPEPVTVSWNSGALTSGVHTFPAVLQSSGLYSLSSVVTVPSSSLGTQTYICNVNHKPSNTKVDKKVEPKSCDKTHTCPPCPAPEAAGAPSVFLFPPKPKDTLMISRTPEVTCVVVDVSHEDPEVKFNWYVDGVEVHNAKTKPREEQYNSTYRVVSVLTVLHQDWLNGKEYKCKVSNKALPAPIEKTISKAKGQPREPQVYTLPPSREEMTKNQVSLTCLVKGFYPSDIAVEWESNGQPENNYKTTPPVLDSDGSFFLYSKLTVDKSRWQQGNVFSCSVMHEALHNHYTQKSLSLSPGGGGSEGGGSEGGGSEDIQMTQSPSSLSASVGDRVTITCQASRDIKNYLAWYQQKPGKAPKLLIYAASSLQSGVPSRFSGSGSGTDFTLTISSLQPEDFATYYCQQSYSTPPTFGCGTKVDIKGGGGSGGGGSGGGGSGGGGSEVQLVQSGAEVKKPGASVKVSCKASGYSFTTYYMHWVRQAPGQCLEWMGIINPSGGSTSYAQKFQGRVTMTRDTSTSTVYMELSSLRSEDTAVYYCASGWVYWGQGTLVTVSS
light: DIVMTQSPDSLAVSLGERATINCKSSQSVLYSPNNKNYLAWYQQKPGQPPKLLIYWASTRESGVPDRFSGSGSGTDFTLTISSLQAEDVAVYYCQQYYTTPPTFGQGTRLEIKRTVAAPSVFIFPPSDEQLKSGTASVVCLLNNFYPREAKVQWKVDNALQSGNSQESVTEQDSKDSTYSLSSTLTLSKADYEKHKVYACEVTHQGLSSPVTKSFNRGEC
As to B7, in assay [1], the “EC50 … on anti-human IgG coated plates” value was determined as 4.83 nM and the “EC50 of SHP-2 recruitment … soluble test article” value was found to be 1.21 nM. Besides, in the assay with human PD-1, the kon is 67600 M⁻¹ s⁻¹ and 41300 M⁻¹ s⁻¹; the response amounted to 0.227. For the same molecule, in the assay with cynomolgus PD-1, the Kd was found to be 13.5 nM, the koff came out at 0.000531 s⁻¹ and the kon stood at 39400 M⁻¹ s⁻¹. In the assay with mouse PD-1, the koff was 0.0228 s⁻¹ and 0.0657 s⁻¹; the kon was 5940 M⁻¹ s⁻¹ and 2670 M⁻¹ s⁻¹; the response turned out to be 0.0367.

B8: Fab moiety of the PD1AB37 (Fab, V domains shown)
VH: EVQLVQSGAEVKKPGASVKVSCKASGYSFTSYYMHWVRQAPGQGLEWMGIINPSGGSTSYAQKFQGRVTMTRDTSTSTVYMELSSLRSEDTAVYYCASGWVYWGQGTLVTVSS
VL: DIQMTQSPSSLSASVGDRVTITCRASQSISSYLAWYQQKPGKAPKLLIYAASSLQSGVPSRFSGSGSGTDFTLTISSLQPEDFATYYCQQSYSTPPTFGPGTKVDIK
notes: also called PD1AB37 Fab
Consider B8, for which the Kd was 497 nM in assay [2], 1350 nM in the assay with Fc-tagged mouse PD-1 and 330 nM in the assay with biotinylated huPD-1.

B9: Fab moiety of the PD1AB38 (Fab, V domains shown)
VH: B8 VH with S31T
VL: DIQMTQSPSSLSASVGDRVTITCQASRDIKNYLAWYQQKPGKAPKLLIYAASSLQSGVPSRFSGSGSGTDFTLTISSLQPEDFATYYCQQSYSTPPTFGPGTKVDIK
notes: also called PD1AB38 Fab
In the case of B9, the Kd came to 172 nM in assay [2], 176 nM in the assay with Fc-tagged mouse PD-1 and 140 nM in the assay with biotinylated huPD-1.
